Experimental data reported in PMC10304477.

What was measured:
[1] = biological target: extracellular domain of the S protein of SARS-CoV-2 Omicron BA.3 (BA.3-S) (SARS-CoV-2 Omicron BA.3); experiment: cryo-EM structure
[2] = biological target: extracellular domain of the S protein of SARS-CoV-2 Omicron BA.1 (BA.1-S) (SARS-CoV-2 Omicron BA.1); experiment: cryo-EM structure

“extracellular domain of the S protein of SARS-CoV-2 Omicron BA.3 (BA.3-S) (domain or fragment)” gave a stoichiometry N [1] of 3.
In the case of “extracellular domain of the S protein of SARS-CoV-2 Omicron BA.1 (BA.1-S) (domain or fragment)”, the stoichiometry N [2] was 3.
“peptidase domain (PD) of human ACE2 (from UniProt Q9BYF1 19-615) (domain or fragment)” showed a stoichiometry N (ACE2-PD per S trimer) [2] of 2.
